In the nanobody polyreactivity screen of Harvey et al. (2022):

test: yeast display, Sf9 membrane polyspecificity reagent, FACS + sequencing; frameworks hold sequencing errors
Outline: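 Galactose induction of a Saccharomyces cerevisiae BJ5465 synthetic nanobody display library ran 36–48 hours. The cells were then stained for 1 hour at 4 °C with 10% biotinylated, detergent-solubilized Sf9 membrane reagent, pulled down on streptavidin microbeads and FACS-sorted into low and high (top ~1%) gates on expression and reagent-binding fluorescence. Labels for polyreactivity follow the gate of origin.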

Row | Sequence | polyreactivity (PSR sort gate)
1 | QVQLVESGGGLVQAGGSLRLSCAASGFIFNFYAMGLYRQAPGKERELVAAISRSGGGTYYADSVKGRFTISRDNAKYTVYFQMNSLKPEDTAVYSCNVDKYRIVGFHSPYDYWGQGTQVTVSS | high polyreactivity
2 | QVQLEESGGGVVQAGGSLRLSCAASGRTFYHKAMGWYRQAPGKETQVVATINSGGSTYADSVKGRFTISRDNAKNTVYLQMNSVKPEDTAVYYCAATFWSRSRFYYGYDYWGQGTQVTVSS | high polyreactivity
3 | QVQLVESGGGLVQAGGSLRLSCAASGGINGTYTMGWYRQAPGKEREMGAAISKRGGNTYYADSVKGRFTISRDNAKNTVYLQMNSLKPEDTAVYYCAKRVSGSPPTAGSLSDSWGQGTQVTVSS | high polyreactivity
4 | QVQLVESGGGLVQAGGSLRLSCAASGSIFWRNMGWYRQAPGKERELVAAISYGSVSTYYADSVKGRFTISRDNAKNTVYLQMNSLKPEDTAVYYCAATLPGWYNEHDSWGLGTQVTVSS | low polyreactivity
5 | QVQLVESGGGLVQAGGSLRLSCAASGSIFDIYAMGWYRPAPGKERELVAAISLSAGSTYYADSVKGRFTISRDNAKNTVYLQMNSLKPEDTAVYYCNADGWYGYWGQGTQVTVSS | low polyreactivity
6 | QVQLVESGGGLVQAGGSLRLSCAASGSTFTAYAMGWYRQAPGKERQLVAAISKRSGVTYYADSVKGRFTISRDNAKNTVYLQINSLKPEDTAVYYCGQGTQVTVSS | low polyreactivity
7 | QVQLVESGGGLVQAGGSLRLSCAASGSTFNVNAMGWYRQSPGKERELVAAITSSGGSTNYADSVKGRFTFSRDNAKYTVYLQMNSLNPEDTAFYYCAAYAIYFSRLNLGYDYWGQGTQVTVSS | low polyreactivity
8 | QDQLVESGGGLVQAGASLRLSCAASGITFNVYAMGWYRQAPGKEREFVAAISYNGGRTYYADSVKGRFTISRDNAKNTVYLQMNSLKPEDTAVYYCAAQWAWGPYDYWGQGTQVTVSS | high polyreactivity
9 | QVQLVESGGGLVQAGGSLRLTCAASGFTFRYYAMGWYRQAPGKERELVASITGGGRTYYADSVKGRFTISRDNAKNTVYLQMNSLKPEDTAVYYCATLLAYRLGSGYDSWGQGTEVTVSS | high polyreactivity
10 | QVQLVESGGGLVQAGGSLRLSCAAYGRIFYYNAMGWFRQAPGKERELVASIDNGGSTNYADSVKGRFTISRDNAKNTVYLQMNSLKPEDTAVYYCNVDLYYEVSHVFLYEYDYWGQGTQVTVSS | low polyreactivity
11 | QVQLVESGGGLVQAGGRLRLSCAASGRIFVYYMGWNIQAPGKERELVAAISFGGGSTYYADSVKGRFTISRDNAKNSVYLQMYSLKPEDTAVYYCNADGDDLDWNYYLVQYDYWGQGTQVTVSS | low polyreactivity
12 | QVQLVESGGGLVQAGGSLRLSCAASGSTFTANAMGWYRQAPGKERELVAAITNSDGSTYYADSVKGRFTISRDNAKNTVYLQMNSLKPEDTAVYYCAAPADSGITQVWQALSDYWGQGTQVTVSS | low polyreactivity
13 | QVQLVESGGGLVQAGGSLRLSCAASGSIFPLYAMGWYRQAPGKERELVAAISWSGGSTYYADSVKGRFTISRDNAKNTVYLKMNSLKPEDTAVYYCATLYISTSGYIYEGDYWGQGTQVTVSS | high polyreactivity
14 | QVQLVESGGGLVQAGGILRLSCAASGLIIGEYDMGWYRQAPGKERELVAAMSDRGTSTYYADSVKGRFTISRDNAKNTVDLPMNSLKPEDTAVYYCATDRIYYYSWEYDYWGQGTQVTVSS | low polyreactivity
15 | QVQLVESGGGLVQAGGSLRLSCAASGRTFKYYTMGWYRQAPGKEREFVAAITSSGGRTYYADSVKGRFTISRDNAKNTVDLQMNSLKPEDTAVYYCAASTYRVWLAPATLSRYDYWGQGTQVTVSS | high polyreactivity
16 | QVQLVESGGGLVQAGGSLRLSCAASGSIFVNNAMGLYRQAPGKERELVAAISSRSSRTFYADSVKGRFTISRDYAKNTVYLQMNSLKPEDTAVYYCAAELYGLKYGYYLSYDYWGQGTQVTVSS | high polyreactivity
17 | QVQLVESGGGLVQAGGSLRLSCAASGFTFKLYAMGWYRQSPGKVRELVAAISSSGGRTYYADSVKGRFTISRDNAKYTVYLQMNSLKPEDTAVYYCNAVRTVNDYHYDYWGQGSQVTVSS | high polyreactivity
18 | QVQLVESGGGLVQAGGSLRLSCAASGNTFAVNAMVWSRQAPGKERELVAAISRTGGRTYYADSVKGRFTISRDNAKNTVYLQMNSLKPEDTAVYYCAAEYYYTSQLAKYHYGYEYWGQGTQVTVSS | high polyreactivity
19 | QVQLVESGGGLVQAGGSLRLSCAASGSTFYLYAMGWYRQAPGKEREFVAAISWSGGRTYYADSVKGRFTISRDNAKNTVYLQMNSLKPEYTAVYYCAARRRYTWQYTRYDMGYWGQGTQVTVSS | low polyreactivity
20 | QVQLVESGGGLVQAGGSLRLSCAASGILFSAHAMGWYRQAPGKERELVAAISKSGSRTYYADSVKGRFTISRDNAKNTVYLQMNSLKPEDTAVYYCNAVTYSRRYAYYYWGQGTQVTVSS | high polyreactivity

Row | Sequence | polyreactivity (PSR sort gate)
21 | QVQLVESGGGLFQAGGSHRLSCAASGSTFTPYAMGWYRQAPGKEREFVARISWTGGSTYYADSVKGRFTISRDNAKNTVYLQMNSLKPEDTAVYYCAARYGYSYYRRDYWGQGTQVTVSS | high polyreactivity
22 | QVQLVESGGGLVQAGGSLRLSCAASGRTFASNDMGWYRHAPGNERELVAGITGSGGSTYYADSVKGRFTISRDNAKNTVYLQMNSLKPEDTAVYYCAADRSRGYGYDYWGQGTQVTVSS | low polyreactivity
23 | QVQLLESGGGKVQAVGSLRLSCAASGSIDDWYAMGWYRQAPGKERELLAAINEGGGSTYYADSVKGRFTISRDNAKNTVYFQMNILKPEDTAFYYCNAELSFRYPVFRELDYWGQGSQVTVSS | low polyreactivity
24 | QVQLVESGGGLVQAGGSLRLSCDASGTTFVFNAMGWYRHAPGKERELVAAISFSSDTTHYADSVKGRFTISRDNAKNTVYLQMNSLKPEDTAVYYCAADFVGYARNWYYFCGQGTQVTVSS | low polyreactivity
25 | QDQLVDSGGGLVQAGGSLRLLCAPSGRTFGVYAMGRYIQAPGKERELVAAISRDGGSTYYADSVKGRFTISRDNAKNTVYLQMNSLIPEDTAVYYCNTDWRYRYGYWGQGTQVTVSS | high polyreactivity
26 | QVQLVESGGGLVQAGGSLRLSCAASGFIFYYYAMGWYRQATGKERELDASISSDGSTYYADSVKGRFTISRDNAKNTVYLQMNSLKPEDTAVYYCNADRYYPDDLSDGVGTYDYWGQGTQVTVSS | low polyreactivity
27 | QVQHVESGGGLVQAGGSLRLSCAASGFTFSVYVLGWSRQAPGKERELVAAITWSGGSTYYADSEQGRITISRDHAKNTVYLQMNSQKPQETAVYYCAAQAFSPHYGWFYYWGQGTQVTVSS | high polyreactivity
28 | QVQLVESGGGLVQAGGSLRLSCAASGSIFPRYVMGWYRQAPGTARELVAAISGSGGSTYYADSVKGRFTISRDNAKNTVYLQMNSLKPEDTAVYYCNKLRRRVNRDIDDYWGQGTQVTVSS | high polyreactivity
29 | QVQLVESGGGLVQAGGSLRLSCAASGSTFTSYAMGWYRQAPGKEREFVAAISQSSGSTYYADSVKWSFTISRDNAKNTVYLQMNSLKPEDTAVYYCAAKGRIRYGYGFDYWGQGTQVTVSS | high polyreactivity
30 | QVQLVESGGGLVQAGGSLRLSCAASGRIFKYYAMGWYRQAPGKERELVAAITYSGGSTYADSVKGRFTISRDNAKNTVYLQMNSLKPEDTAVYYCAVARRSRVVSSIRGDYWGQGTQVTVSS | high polyreactivity
31 | QVQLVESGGGLVQAGGSLRLSCAASGSIFLENAMGWYRQAPGKERELVAAISRSGGSTYYADSVKGRFTISRDNAKNTVYLQMNSLKPEDTAVYYCNAYRDVYNYFFGAKYDYWGQGTQVTVSS | high polyreactivity
32 | QVQLEESGGGLVQEGGSLRLICAASGSTFYVYARGWYRQAPGKERELVAAITGSTGSTYYADSVKGRFTISRDNAKNTVELQMNSLKTEVTAFYYCDADFYGVPIIYDYWRQGTQVTVSS | low polyreactivity
33 | QVQLVESGGGLVQAGGSLRLSCAASGRTFGWYAMGWYRQAPGKERELVAAITSGTSTYYADSVKGRFTISRDNAKNTVYLQMNSLKPEDTAVYYCAAQQGISNGTGVSATNPMDYWGQGTQVTVSS | low polyreactivity
34 | QVQLVESGGGLVQAGGSLRLSCAASGFTFYKNAMGWYRQAPGKERELVAAITSSGGSTYYADSVKGRFTISRDNAKNTVYLQMNSLKPEDTAVYYCAARASRPRFGYWGQGTQVTVSS | high polyreactivity
35 | QVQLVESGGGLVQAGGSLRLICAASGSTFGAYAMGWYRQAPGKERELVAAISRSGGTTYYADSVKGRFTISRDNSKNTVYLQMNSLKPEDTEVYYCAADWLNSVPYNYWGQGTLVTVSS | low polyreactivity
36 | QVQLVESGGGLVQAGGSLRLSCAASGRIFTGYVMGWYRQAPGKERELVAAITYTGGSTFYADSVKGRFTISRDNAKNTVYLQMNSLKPEDTAVYYCAADESPYFLDIVTYYEFDYWGQGTQVTVSS | low polyreactivity
37 | QVQLVESGGGLVQAGGSLRLSCAASGSTLYYYVMGWYRQAPGKERELVAAISSSGDSTYYADSVKGRFTISRDNAKNTVYLQMTSLKPEDTAVYYCNAGWYFYGETTDDYWGQGTQVTVSS | low polyreactivity
38 | QVQLVESGGGLVQAGGSLRLSCAASGRIFYHYAMGWYRQAPGKERELVATINSSGTSTYYADSVKGRFTISRDNAKNTVYLQMNSLKPEDTALYYCAASTYNKMYYWGQGTHVTVSS | high polyreactivity
39 | QVQLVESGGGLVQAGGSLRLSCAASGRIFHLYAMGWYRQAPGKERELVAAITFSGGSTYYADSVKGRFTISRDNAKNTVYLQMNSLKPEDTAVYYCAKRSFYLFSSRLPFKYDYGGQGTQVTVSS | low polyreactivity
40 | QVQLVESGGGLVQAGGSLRLSCAASGRIFIEYAMGWYRQAPGKERELVATINSSGGRTYYADSVKGRFTISRDNAKNTVYLQMHSLKPEDTAVYYCNADVGLLYTETYEYDYWGQGTQVTVSS | low polyreactivity
